Series [1] relates to G. max ALS1 protein. The experiment in a line: Colorimetric ALS kinetic assay (Km, kcat) with pyruvate as substrate. It is filed as biochemical, Glycine max. Summed up:
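Recombinant soybean ALS variants, mature N-terminus from S48, His-MBP tag cleaved off; 0.8 ug enzyme per well in 25 mM potassium phosphate, 15 mM MgCl2, 0.7 mM TPP, 28 uM FAD, 0.2 mg/ml BSA, 0-100 mM pyruvate. Km and Vmax from hyperbolic fit; kcat from Vmax and protein concentration.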

Series [2] relates to G. max ALS1 protein. The experiment in a line: Substrate specificity ratio (Rf), pyruvate versus 2-ketobutyrate, LC-MS of reduced products. It is filed as biochemical, Glycine max. Conditions: ratio of [pyruvate] to [2-ketobutyrate] giving equal rates of acetolactate and acetohydroxybutyrate formation, 25 mM pyruvate. Summed up:
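Pyruvate was held at 25 mM while 2-ketobutyrate was varied. Reactions were quenched with sodium borohydride, and the reduced acetolactate and acetohydroxybutyrate were separated on C18 with a methanol gradient and quantified by MS integration. Rf is the [pyruvate]/[2-ketobutyrate] ratio that gives equal formation rates of both products.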

Series [3] relates to soybean embryogenic suspension tissue. The experiment in a line: Chlorsulfuron selectable marker activity in soybean transformation. It is filed as cell-based. Conditions: chlorsulfuron selection 50 then 100 ppb; SAMS (low) or UBQ10 (high) expression promoter as in label. From the text: Soybean plants expressing ALS variant transgenes were produced using the method of particle gun bombardment (Klein et al. (1987) Nature 327:70-73, U.S. Pat. No. 4,945,050) using a DuPont BIOLISTIC® PDS1000/He instrument. The vectors used to test modified ALS genes as selectable markers in soybean transformation were composed of the S-adenosylmethionine synthase (SAMS) promoter (U.S. Pat. No. 7,741,537) from soybean, or the polyubiquitin 10 (AT-UBQ10) promoter (DuPont) from Arabidopsis, driving the modified ALS coding sequence followed by the native soybean ALS terminator region. The selection agent used during the transformation process was chlorsulfuron. Bombardments were carried out with linear DNA fragments purified away from any bacterial vector DNA. Bombarded soybean embryogenic suspension tissue was cultured for one week in the absence of chlorsulfuron, and then placed in liquid selection medium for 6 weeks. Selection in liquid cultures was at 50 parts per billion (ppb) chlorsulfuron for three weeks, then elevated to 100 ppb. Putative transgenic suspension tissue was sampled for PCR analysis to confirm the presence of the modified ALS gene. Putative transgenic suspension culture tissue was maintained in selection medium for 3 weeks to obtain enough tissue for plant regeneration. […]

B1: GM-ALS1: Glycine Max ALS1 protein, wild type (protein)
chain: MAATASRTTRFSSSSSHPTFPKRITRSTLPLSHQTLTKPNHALKIKCSISKPPTAAPFTKEAPTTEPFVSRFASGEPRKGADILVEALERQGVTTVFAYPGGASMEIHQALTRSAAIRNVLPRHEQGGVFAAEGYARSSGLPGVCIATSGPGATNLVSGLADALMDSVPVVAITGQVPRRMIGTDAFQETPIVEVSRSITKHNYLILDVDDIPRVVAEAFFVATSGRPGPVLIDIPKDVQQQLAVPNWDEPVNLPGYLARLPRPPAEAQLEHIVRLIMEAQKPVLYVGGGSLNSSAELRRFVELTGIPVASTLMGLGTFPIGDEYSLQMLGMHGTVYANYAVDNSDLLLAFGVRFDDRVTGKLEAFASRAKIVHIDIDSAEIGKNKQAHVSVCADLKLALKGINMILEEKGVEGKFDLGGWREEINVQKHKFPLGYKTFQDAISPQHAIEVLDELTNGDAIVSTGVGQHQMWAAQFYKYKRPRQWLTSGGLGAMGFGLPAAIGAAVANPGAVVVDIDGDGSFIMNVQELATIRVENLPVKILLLNNQHLGMVVQWEDRFYKSNRAHTYLGDPSSESEIFPNMLKFADACGIPAARVTKKEELRAAIQRMLDTPGPYLLDVIVPHQEHVLPMIPSNGSFKDVITEGDGRTRY
modifications: GLYCINE MAX
notes: Glycine Max ALS1 protein, wild type
For B1, the Km (in general, the concentration of substrate that gives half-maximal velocity) in the series on G. max ALS1 protein [1] amounted to 3000 µM. The kcat (usually the maximal rate divided by the concentration of active sites) in the series with G. max ALS1 protein [1] amounted to 0.933 s⁻¹. Also, the “Substrate specificity ratio (Rf)” value in the series with G. max ALS1 protein [2] is on record as 114.0; in the series with G. max ALS1 protein [2] (listed as Glycine max ALS1), about 114; with G. max ALS1 protein [2] (listed as wild type enzyme), about 114. Further, the “Selectable Marker Activity” value in series [3] is reported as “not able to act as a selection marker”.

(Values after US10294487B2, “Methods and compositions involving ALS variants with native substrate preference” (E I DU PONT DE NEMOURS AND COMPANY, priority 2012, dated 2019).)
